Read-outs that look alike come from different tables or passages of the source.
What was measured:
[1] = PET/CT quantification of 86Y-labeled variants in AR42J xenograft mice; type: in vivo; conditions: athymic nude, mouse, in vivo, iv, total radioactivity
Procedure: For studies involving three variants (DOTA -TATE, DOTA-MVK(ε)-TATE, and DOTA-β-Gal-TATE), AR42J cells (5 × 10^6 cells per mouse) were subcutaneously inoculated into the right shoulder of the mice. Tumors were allowed to grow for 3 weeks, reaching a volume of 100 –200 mm³ before being used in subsequent experiments. For biodistribution or PET imaging studies, mice bearing subcutaneous AR42J tumors were administered 1.4 – 1.8 MBq (1 μg) of 111In-labeled DOTA-TATE variants or 2.7 – 4.9 MBq (1 μg) of 86Y-labeled DOTA-TATE variants via […]
tail vein injection. […]
PET imaging to assess the uptake of three 86Y-labeled DOTA-TATE variants (2.7 – 4.9 MBq, 1 μg) in the kidney and tumor was performed at 1, 4, and 24 hours post-injection (n = 3 per cohort) in mice bearing AR42J tumors using the MRS*PET/CT 120 scanner (MR Solutions, Guildford, UK). PET/CT data acquisition was managed using Preclinical Scan software (version 4.2.4.0, MR Solutions). Mice were anesthetized with 2% isoflurane, and static PET sc ans were acquired over 10 min. CT scans were obtained for attenuation correction and anatomical co-registration.
PET data were reconstructed using three-dimensional ordered-subsets expectation maximization, and were subsequently normalized, decay - and dead-time–corrected prior to analysis. PET/CT images were analyzed using MIM software (version 7.2.7, MIM Software Inc., Beachwood, OH, USA), and the quantitative evaluation of the maximum standardized uptake (SUVmax) and the average standardized uptake values (SUVmean) in the kidney and tumor were also performed. […]

[2] = Ex vivo biodistribution of 86Y-labeled variants in AR42J tumor-bearing mice; conditions: athymic nude, mouse, iv, 1 ug, total radioactivity, mean; for tissue uptake at 1 h: 1 h post-injection; for tissue uptake at 4 h: 4 h post-injection; for tissue uptake at 24 h: 24 h post-injection
Procedure: To independently confirm these observations, ex vivo biodistribution studies were conducted using the same ^86Y-labeled compounds at matched timepoints (Fig. S16; Table S3). […]
For studies involving three variants (DOTA -TATE, DOTA-MVK(ε)-TATE, and DOTA-β-Gal-TATE), AR42J cells (5 × 10^6 cells per mouse) were subcutaneously inoculated into the right shoulder of the mice. Tumors were allowed to grow for 3 weeks, reaching a volume of 100 –200 mm³ before being used in subsequent experiments. For biodistribution or PET imaging studies, mice bearing subcutaneous AR42J tumors were administered 1.4 – 1.8 MBq (1 μg) of 111In-labeled DOTA-TATE variants or 2.7 – 4.9 MBq (1 μg) of 86Y-labeled DOTA-TATE variants via tail vein injection. Biodistribution studies with 111In-labeled DOTA -TATE variants were performed 1 hour post -injection (n = 3 per cohort), while studies with 86Y-labeled DOTA-TATE variants were conducted at 1, 4, and 24 hours post -injection (n = 3 per cohort). Mice were euthanized by CO2 asphyxiation, and 10 tissues, including tumors, were collected. All samples were weighed and counted on a gamma counter (2480 Wizard 3, Perkin Elmer Inc., Waltham, MA, USA). Results are presented as percentage of injected activity per gram (%IA/g) and mean values ± standard deviations. […]

[3] = blood, ex vivo, n = 3, read-out: Blood uptake
[4] = femur, ex vivo, n = 3, read-out: Femur uptake
[5] = heart, ex vivo, n = 3, read-out: Heart uptake
[6] = intestine, ex vivo, n = 3, read-out: Intestine uptake
[7] = ex vivo, n = 3, read-out: Tumor uptake
[8] = kidney, ex vivo, n = 3, read-out: Kidney uptake
[9] = liver, ex vivo, n = 3, read-out: Liver uptake
[10] = lung, ex vivo, n = 3, read-out: Lung uptake
[11] = muscle, ex vivo, n = 3, read-out: Muscle uptake
[12] = spleen, ex vivo, n = 3, read-out: Spleen uptake

## CSCC[C@H](NC(=O)CN1CCN(CC(=O)O)CCN(CC(=O)O)CCN(CC(=O)O)CC1)C(=O)N[C@H](C(=O)N[C@@H](CCCCNC(=O)CCCC(=O)N[C@H](Cc1ccccc1)C(=O)N[C@H]1CSSC[C@@H](C(=O)N[C@H](C(=O)O)[C@@H](C)O)NC(=O)[C@H]([C@@H](C)O)NC(=O)[C@H](CCCCN)NC(=O)[C@@H](Cc2c[nH]c3ccccc23)NC(=O)[C@H](Cc2ccc(O)cc2)NC1=O)C(=O)O)C(C)C [^86Y-DOTA-MVK(ε)-TATE, metal not drawn]
[1]; Kidney SUVmax
  SUV at 4 h: 0.42 ± 0.07 SUV
  SUV at 24 h: 0.21 ± 0.01 SUV
[1]; Tumor SUVmax
  SUV at 1 h: 1.31 ± 0.06 SUV
  SUV at 4 h: 1.06 ± 0.14 SUV
  SUV at 24 h: 1.04 ± 0.13 SUV
[2]; blood, i.v. 1 μg (2.7–4.9 MBq), ex vivo gamma counting, n = 3, read-out: Blood uptake
  tissue uptake at 1 h: 0.32 %ID/g
[2]; [3]
  tissue uptake at 4 h: 0.17 %ID/g
  tissue uptake at 24 h: 0.02 %ID/g
[2]; [4]
  tissue uptake at 1 h: 0.52 %ID/g
  tissue uptake at 4 h: 0.21 %ID/g
  tissue uptake at 24 h: 0.2 %ID/g
[2]; [5]
  tissue uptake at 1 h: 0.35 %ID/g
  tissue uptake at 4 h: 0.24 %ID/g
  tissue uptake at 24 h: 0.08 %ID/g
[2]; [6]
  tissue uptake at 1 h: 0.69 %ID/g
  tissue uptake at 4 h: 0.46 %ID/g
  tissue uptake at 24 h: 0.05 %ID/g
[2]; [7]
  tissue uptake at 1 h: 5.02 %ID/g
  tissue uptake at 4 h: 5.08 %ID/g
  tissue uptake at 24 h: 4.53 %ID/g
[2]; [8]
  tissue uptake at 1 h: 4.12 %ID/g
  tissue uptake at 4 h: 3.78 %ID/g
  tissue uptake at 24 h: 1.66 %ID/g
[2]; [9]
  tissue uptake at 1 h: 0.17 %ID/g
  tissue uptake at 4 h: 0.15 %ID/g
  tissue uptake at 24 h: 0.06 %ID/g
[2]; [10]
  tissue uptake at 1 h: 0.79 %ID/g
  tissue uptake at 4 h: 0.47 %ID/g
  tissue uptake at 24 h: 0.13 %ID/g
[2]; [11]
  tissue uptake at 1 h: 0.45 %ID/g
  tissue uptake at 4 h: 0.23 %ID/g
  tissue uptake at 24 h: 0.09 %ID/g
[2]; [12]
  tissue uptake at 1 h: 0.25 %ID/g
  tissue uptake at 4 h: 0.22 %ID/g
  tissue uptake at 24 h: 0.14 %ID/g
